System: MS2 coat protein
Assay: apparent KD of MS2 coat protein; designed switch direction (-1 OFF switch, 1 ON switch): -1; higher = weaker reporter binding
Method in brief: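 The reported apparent KD is a per-design median over clusters, from curve fits of normalised cluster fluorescence. Protein titrations used SNAP-549-labelled MS2 coat protein, doubled from 0.7 or 1.5 nM to 3 µM, in Tris-HCl pH 7.5 buffer with KCl, MgCl2, BSA, DTT, tRNA and Tween-20, with no input, 200 uM small-molecule ligand, or an oligonucleotide input. The RNA switches were transcribed on Illumina chips by stalled E. coli RNA polymerase.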

[1] = Eterna round: R95, input ligand: microRNA oligo, concentration not stated
[2] = Eterna round: R95, input ligand: FMN 200 uM
[3] = Eterna round: R95, input ligand: none
[4] = input ligand: microRNA oligo, concentration not stated

Sequence | apparent KD of MS2 coat protein [1] [nM] | apparent KD of MS2 coat protein [2] [nM] | apparent KD of MS2 coat protein [3] [nM] | apparent KD of MS2 coat protein (input ligand: FMN 200 uM) [nM] | apparent KD of MS2 coat protein [4] [nM] | apparent KD of MS2 coat protein (input ligand: none) [nM]
CCUCAGUAAGGAUAUCAGCUUAGGAGGUUGGUAAUGAGAGCUGAGAAGGUACAUGAGGAUCACCCAUGUUAGUU [JL Zatite mod 7] (puzzle: Exclusion 4) | 30.2 | – | – | – | – | –
AAAUACAAGCAAAGAUUCUACAUGAGGAUCACCCAUGUGCUCGUCUUAUAAAGUACUAUCACGAAAGUGAUAGUACA [Sensor 3, v1 - 33] (puzzle: Sensor v3, turn-off variant 1) | 161 | 21.3 | 23.2 | – | – | –
GCACGGUUGGUAGGAUAUCCUUGCGAUUAGCAAGGAGAAGGACCACAUGAGGAUCACCCAUGUACCUCAAUAAUCCUUCCGUGC [Eli exng1 - 027] (Eterna round: R96, puzzle: Exclusion NG 1) | – | – | – | 12.8 | 12.1 | 14.7
GACACUCAUGUAAGUAUUUACAUGAGGAUCACCCAUGUACCACUAGAAGACUAGGGAACGAAACGAGCUGGCUGUCA [Eternabot (Original) Solution 6] (Eterna round: R97, puzzle: Sensor, turn-off variant 1) | – | – | – | 1290 | – | 567
CCAAGCUACUUCAUUAUCCACAUGAGGAUCACCCAUGUCUAGGCAAUUAUGACCUGCCCGUCAGGAGCUCGUCUUAU [Sensor-V1 #40] (Eterna round: R97, puzzle: Sensor, turn-off variant 1) | – | – | – | 35.1 | – | 28.7
AAAACGGACCGAGGAUAUACAUGAUAUCUUUACGUAGAAGGCGGACCGGCGACUUGAGGAUCACCCAAGUGUCCUCUUUUGCGG [Mutated MS2 EX1.26] (Eterna round: R96, puzzle: Exclusion NG 1) | – | – | – | 184 | 51.1 | 46.7
CUUGUUUAUGUAGGAUAUGCCUGGCGUGCCUUUGCAGAAGGACAUGAGGAUCACCCAUGUAUUGCGGUCUGCGUUCAGAUCGCA [salish99_ExNG1_r4_045] (Eterna round: R96, puzzle: Exclusion NG 1) | – | – | – | 34.6 | 23.2 | 34.5
UUAAUGUGAGGAUAUCAGGUGUGCUAGCGUACUGGUACAUCUGAGAAGGCACAUGAGGAUCACCCAUGUUCCUU [JL-ex4-3.27 Brourd mod] (puzzle: Exclusion 4) | 16.2 | – | – | – | – | –
AAGGUACAUGAGGAUCACCCAUGUGAGGAUAUCGUUGUUGAGUCUAGAGAUACAAUGUUGAGAAGGUACGGGUA [Eternabot (L2) Solution 94] (Eterna round: R97, puzzle: Exclusion 1) | – | – | – | 63.1 | – | 61.2
CCUCAACAUGAGGAUCACCCAUGUAAGGAUAUGUUGCAGAGCCUCGAGGUACCCGUCAACAGAAGGUAUAUAGA [Eternabot (L1) Solution 16] (Eterna round: R97, puzzle: Exclusion 1) | – | – | – | 45.1 | – | 30.7
GUUGUUUAUGUAGGAUAUGCCUGGCGUGCCUUUGCAGAAGGACAUGAGGAUCACCCAUGUAUUGCGGUCUGCGUUCAGAUCGCA [salish99_ExNG1_r4_039] (Eterna round: R96, puzzle: Exclusion NG 1) | – | – | – | 59.5 | 26 | 39
AUAAUGUAAGGAUAUCAGUCGACUAGCCUCGGCUAGUCGACUGAGAAGGUACAUGAGGAUCACCCAUGUGUUUC [E4/12-A3] (Eterna round: R97, puzzle: Exclusion 4) | – | – | – | 244 | – | 35.6
UUAUACGUUGAGGAUAUGUUAUUUAGUAUAGUUACAGAAGGCGAUACAUGAGGAUCACCCAUGUUUAUGGGCAU [Ex-6 Malc#1] (puzzle: Exclusion 6) | 196 | – | – | – | – | –
CUGGUCCGAGGAUAUAUUAAGUGAAACAUGAGGAUCACCCAUGUAAUUUGAUGGAUGUAAAUAGAAGGCGGACUAG [JL-ex5-3.09] (puzzle: Exclusion 5) | 37.1 | 29.4 | 43.8 | – | – | –
CAGACACAUGAGGAUCACCCAUGUGAGGAUAUGCGUACGUUGUCCGUAGGCGACGUGCGCAGAAGGCACAAAGG [JL-ex1-3.09 Eli mod] (puzzle: Exclusion 1) | 52.7 | – | – | – | – | –
UUUUGGCAUGUAGGAUAUGGGUCCGAUUGGGAUUUAGAAGGACAUGAGGAUCACCCAUGUGCCCUUACUUGGUCUUUUUUUUUU [EXclNG1-LROPPY19] (Eterna round: R96, puzzle: Exclusion NG 1) | – | – | – | 298 | 128 | 228
GCAUGUUGGUAGGAUAUGCAGCGGAAACCGCUAGUAGAAGGAUUGACAUGAGGAUCACCCAUGUGAACCGAAGG [Arcelace] (Eterna round: R97, puzzle: Exclusion 6) | – | – | – | 186 | – | 40.4

Sequence | apparent KD of MS2 coat protein [1] [nM] | apparent KD of MS2 coat protein [2] [nM] | apparent KD of MS2 coat protein [3] [nM] | apparent KD of MS2 coat protein (input ligand: FMN 200 uM) [nM] | apparent KD of MS2 coat protein [4] [nM] | apparent KD of MS2 coat protein (input ligand: none) [nM]
GUCCUGGAAUAUCAGUCGCACAUGAGGAUCACCCAUGUCAUGGGUAGAUCAAUAAAUAAAGAUACUGCUCGUCUUAU [Cac sensor turnoff var1 sub3] (Eterna round: R97, puzzle: Sensor, turn-off variant 1) | – | – | – | 186 | – | 409
UAUGUUUUAGGAUAUUGUACUGCUGACAUGAGGAUCACCCAUGUAUGCUAACUCGGCCGUCGAGAAGGAGAAUAUG [BotMod 30 - Jieux - Exclusion 5] (Eterna round: R97, puzzle: Exclusion 5) | – | – | – | 43.6 | – | 63.8
CCCGCAGGUUUUUUGCUCGACAUGAGGAUCACCCAUGUUGCGUGGGUUGUGUGUGUGCGGUGUAUAUAUAUGGUCCU [-24.5, -48 kcal, A 14%] (Eterna round: R97, puzzle: Sensor, turn-off variant 1) | – | – | – | 305 | – | 371
UGACAGGCUAGACGAACAAACAUGAGGAUCACCCAUGUCAUUCCAUGUCUGCGUCAUAAGUAGAUGCUCGUAUAUCG [Eternabot (Original) Solution 33] (Eterna round: R97, puzzle: Sensor, turn-off variant 1) | – | – | – | 16.6 | – | 18.1
UCCAGACAUGAGGAUCACCCAUGUGAGGAUAUGAUGCGAUCGUCGAAAGACGAUAGCAUCAGAAGGCACGUAUG [Fiskers Ex 1 - 15] (puzzle: Exclusion 1) | 32.6 | – | – | – | – | –
UAUUAAGCAAGCAGAUCCCACAUGAGGAUCACCCAUGUGCUCGUCUUAUAAGGUACUGUGACGAGAGUCACGGUACC [Mat - Sensor, turn-off var - Eli Mod - D69] (Eterna round: R97, puzzle: Sensor, turn-off variant 1) | – | – | – | 165 | – | 129
UGUUGUUACGCAGGAUAUGAGGAUCACCCAUAUAAGGAUAUCGAAAGAGAAGUUCUGAGGAUCACCCAGAAGGGCGGGUUAACA [pwkr exNG2 2xF5 2xFMN.31] (Eterna round: R96, puzzle: Exclusion NG 2) | – | – | – | 193 | 59 | 71.1
CGAAAUGCCCGUGGCCACAAGCUUUUUGCUUGUCUUACUACAUGAGGAUCACCCAUGUACCAUGGGCUCCUGACCAU [Rixele] (puzzle: Sensor v3, turn-off variant 2) | 11.6 | 13.6 | 11.2 | – | – | –
AACAGUACAGGAUAUACAUGAGGAUCACCCAUGUGAGAAUUAAGUGGCGAACCACAAAGUAGAAGGGUACUGGA [Mat - Exclusion 3 - JL mod - D1] (Eterna round: R96, puzzle: Exclusion 3) | – | – | – | 98.2 | 38.5 | 46.3
ACAAGCUUUUUGUUUGUCUACAUGAGGAUCACCCAUGUGGGUGUCAGUCAUGCUGGCGUGUGGUGUCGUGGCAGCGC [Sensor V1 S1] (Eterna round: R97, puzzle: Sensor, turn-off variant 1) | – | – | – | 978 | – | 1610
UCGAAAUCUAACAAGCCAUACAUGAGGAUCACCCAUGUGUUCGUCAUAGCGAUCCGACAUGAUGCUCGUCGAAAUAC [Eternabot (L2) Solution 48] (Eterna round: R97, puzzle: Sensor, turn-off variant 1) | – | – | – | 448 | – | 745
CCAAAGUCAGGAUAUGUGCGUUAAAAGCCGUACGUAACGACACAGAAGGGACAUGAGGAUCACCCAUGUUGGUG [Eternabot (Original) Solution 13] (Eterna round: R97, puzzle: Exclusion 4) | – | – | – | 96.7 | – | 979
UUAUAUAGUGUGAGGAUAUGCUGGUCCUUGGAUCAGCAGAAGGCACAUGAGGAUCACCCAUGUAGUUAAAUUUA [Mat - Exclusion 4 - JL Mod - D17] (puzzle: Brourd's mod of Exclusion 4) | 27.3 | – | – | – | – | –
CCUCGAAGGCAAGGAUAUCCUACAUUGUUCUGGCCCGGGCAUGCUACAUGAGGAUCACCCAUGUGGGAGAAGGUGCGCCACGGC [Design 30] (Eterna round: R96, puzzle: Exclusion NG 2) | – | – | – | 56.7 | 45 | 58.3
AAUAACAGAGGAUAUACUGUUUUAUGUGUUUGUUGUUUUAAACAUGAGGAUCACCCAUGUAGAAGGCUGAAUGA [JMF 60] (puzzle: Exclusion 2) | 21.8 | – | – | – | – | –
GUCAGCUCGUCAGGAUAUGAACAUGAGGAUCACCCAUGUAAGAUCAAGCUGCUUCGGCAGCAAGUUCAGAAGGGACGAGCUGAC [ENG2/10-B1] (Eterna round: R96, puzzle: Exclusion NG 2) | – | – | – | 161 | 78.7 | 113
CUUUUGUGAGGAUAUUAGUAGUAAUACAAUAGUAUUACUACUGAGAAGGCACAUGAGGAUCACCCAUGUUCCUC [Ex4 344 Omei mod 5] (puzzle: Exclusion 4) | 36.5 | – | – | – | – | –
